Results as given in patent US20130330343A1 (AbbVie / Abbott, published 2013).

T1: Rat RGMa (rat) (UniProt D4A188)
T1 sequence: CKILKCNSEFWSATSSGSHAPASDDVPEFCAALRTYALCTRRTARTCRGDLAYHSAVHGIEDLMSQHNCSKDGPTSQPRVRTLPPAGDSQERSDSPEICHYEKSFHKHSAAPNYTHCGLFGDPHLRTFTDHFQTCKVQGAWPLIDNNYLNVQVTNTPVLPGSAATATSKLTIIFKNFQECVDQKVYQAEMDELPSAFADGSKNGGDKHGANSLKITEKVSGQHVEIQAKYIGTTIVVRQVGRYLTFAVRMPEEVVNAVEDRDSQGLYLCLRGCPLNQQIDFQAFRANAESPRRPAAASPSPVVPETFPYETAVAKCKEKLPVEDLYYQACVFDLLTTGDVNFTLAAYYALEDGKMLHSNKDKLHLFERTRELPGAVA

T2: hRGMc expressed in 293HEK cells (human, UniProt Q6ZVN8 36-400)
T2 sequence: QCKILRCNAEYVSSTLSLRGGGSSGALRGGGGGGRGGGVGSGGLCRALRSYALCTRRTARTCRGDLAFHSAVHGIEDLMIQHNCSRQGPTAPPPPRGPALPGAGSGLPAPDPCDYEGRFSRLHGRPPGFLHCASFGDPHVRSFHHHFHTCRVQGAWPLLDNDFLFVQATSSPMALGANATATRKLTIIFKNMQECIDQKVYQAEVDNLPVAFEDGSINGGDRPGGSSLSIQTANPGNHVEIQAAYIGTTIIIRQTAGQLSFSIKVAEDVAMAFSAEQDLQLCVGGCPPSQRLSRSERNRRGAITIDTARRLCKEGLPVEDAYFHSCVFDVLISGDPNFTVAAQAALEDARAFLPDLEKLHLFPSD

T3: Rat RGMa-His (rat) (UniProt D4A188)
T3 sequence: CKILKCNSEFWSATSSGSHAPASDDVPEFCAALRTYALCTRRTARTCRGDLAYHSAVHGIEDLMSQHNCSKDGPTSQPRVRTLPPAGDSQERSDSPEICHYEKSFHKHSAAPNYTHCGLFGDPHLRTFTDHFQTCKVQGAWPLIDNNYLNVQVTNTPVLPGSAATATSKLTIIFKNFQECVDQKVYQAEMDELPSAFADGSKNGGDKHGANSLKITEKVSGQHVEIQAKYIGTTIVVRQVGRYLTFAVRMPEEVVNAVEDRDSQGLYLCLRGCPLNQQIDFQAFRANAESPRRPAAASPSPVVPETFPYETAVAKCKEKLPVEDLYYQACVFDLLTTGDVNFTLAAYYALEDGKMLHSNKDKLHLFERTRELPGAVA

T4: R&D hRGMc-His (human, UniProt Q6ZVN8 36-400)
T4 construct: Bought (R&D); not shown: His tag
T4 sequence: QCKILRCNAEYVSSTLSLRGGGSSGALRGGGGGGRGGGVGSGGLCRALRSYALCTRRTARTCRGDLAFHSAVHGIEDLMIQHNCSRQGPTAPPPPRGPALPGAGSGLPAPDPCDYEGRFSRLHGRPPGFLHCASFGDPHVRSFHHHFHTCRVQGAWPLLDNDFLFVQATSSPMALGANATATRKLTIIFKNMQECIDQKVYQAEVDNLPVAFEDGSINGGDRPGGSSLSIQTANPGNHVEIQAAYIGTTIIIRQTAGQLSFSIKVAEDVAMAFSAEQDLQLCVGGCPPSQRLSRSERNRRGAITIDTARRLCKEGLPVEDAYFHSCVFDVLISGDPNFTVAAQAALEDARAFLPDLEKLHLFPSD

T5: hRGMa-His (human, UniProt Q96B86 48-422, limits assumed)
T5 construct: not shown: His tag
T5 sequence (looked up): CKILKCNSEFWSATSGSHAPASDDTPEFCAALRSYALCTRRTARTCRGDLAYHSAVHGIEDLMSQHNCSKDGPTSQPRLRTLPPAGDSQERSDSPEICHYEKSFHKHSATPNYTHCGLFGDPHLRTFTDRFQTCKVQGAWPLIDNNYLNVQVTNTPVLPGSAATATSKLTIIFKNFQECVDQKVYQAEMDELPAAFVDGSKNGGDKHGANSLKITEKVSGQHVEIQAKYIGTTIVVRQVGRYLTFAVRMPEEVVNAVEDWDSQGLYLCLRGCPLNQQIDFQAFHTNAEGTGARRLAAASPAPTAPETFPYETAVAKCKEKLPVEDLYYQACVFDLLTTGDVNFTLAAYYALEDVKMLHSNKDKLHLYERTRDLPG

T6: human RGMa (human, UniProt Q96B86 48-422, limits assumed)
T6 construct: also called hRGMa; h RGMa
T6 sequence (looked up): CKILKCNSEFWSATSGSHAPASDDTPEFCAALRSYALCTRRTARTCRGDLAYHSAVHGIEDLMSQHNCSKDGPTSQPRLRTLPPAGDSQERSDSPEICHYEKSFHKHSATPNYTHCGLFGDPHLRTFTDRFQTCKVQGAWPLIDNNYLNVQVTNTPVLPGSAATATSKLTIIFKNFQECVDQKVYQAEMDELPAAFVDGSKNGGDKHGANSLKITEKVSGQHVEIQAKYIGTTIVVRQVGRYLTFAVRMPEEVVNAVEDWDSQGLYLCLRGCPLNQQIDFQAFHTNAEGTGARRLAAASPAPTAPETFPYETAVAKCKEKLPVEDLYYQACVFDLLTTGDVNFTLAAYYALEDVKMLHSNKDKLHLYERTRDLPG

T7: human RGMc (human, UniProt Q6ZVN8 36-400, limits assumed)
T7 construct: also called hRGMc
T7 sequence: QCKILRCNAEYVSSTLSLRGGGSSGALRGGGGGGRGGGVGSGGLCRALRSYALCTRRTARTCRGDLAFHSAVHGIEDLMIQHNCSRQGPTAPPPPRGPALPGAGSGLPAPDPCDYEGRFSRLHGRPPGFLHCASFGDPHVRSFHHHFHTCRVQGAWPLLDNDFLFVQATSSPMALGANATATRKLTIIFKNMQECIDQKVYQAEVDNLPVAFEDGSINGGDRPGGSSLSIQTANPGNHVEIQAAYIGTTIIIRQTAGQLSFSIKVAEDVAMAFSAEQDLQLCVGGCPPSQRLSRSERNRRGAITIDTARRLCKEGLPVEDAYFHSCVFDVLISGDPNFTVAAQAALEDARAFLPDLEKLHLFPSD


What was measured:
Rat RGMa (rat) = biological target: T1, Rat RGMa (rat); assay: BIAcore; Ab captured via anti-hIgG Fc on CM5 chip, antigen injected; 1:1 Langmuir fit
[1] = biological target: T2, hRGMc expressed in 293HEK cells; assay: cell-based or functional assay
Rat RGMa-His (rat) = biological target: T3, Rat RGMa-His (rat); assay: Affinity KD (nM); (BIAcore per Example 4)
R&D hRGMc-His = biological target: T4, R&D hRGMc-His; assay: Affinity KD (nM); (BIAcore per Example 4)
Procedure: (§1) The potency data correlates with the affinity data (see Table 5). The affinity of h5F9.23 affinity matured Abs towards human RGMa, rat RGMa, and human RGMc were determined by BIAcore analysis (Table 5). Testing Abs were captured to the surface of a CM5 chip via anti-hIgG Fc Ab, and serially diluted antigens were injected. Association and dissociation rates were monitored for 5 and 10 min respectively. Sensorgrams were fitted by global analysis using the BIAevaluation 4.0.1 software for a 1:1 Langmuir binding model. The equilibrium dissociation constants (KD) were calculated from kinetic rate constants (off rate kd and on rate ka): KD=kd/ka.

hRGMa-His = biological target: T5, hRGMa-His; assay: Affinity KD (nM); (BIAcore per Example 4)
Procedure: as §1

human RGMa = biological target: T6, human RGMa; assay: BIAcore; Ab captured via anti-hIgG Fc on CM5 chip, antigen injected; 1:1 Langmuir fit
Procedure: as §1

human RGMc = biological target: T7, human RGMc; assay: as above
Procedure: as §1

[2] = biological target: T2, hRGMc expressed in 293HEK cells; assay: cell-based or functional assay; remark: listed apart in the source

Binder | Kd (Rat RGMa (rat)) [nM] | koff (Rat RGMa (rat)) [s⁻¹] | kon (Rat RGMa (rat)) [M⁻¹ s⁻¹] | IC50 (inhibition of RGMc-mediated BRE-luciferase activity, RLU, in 293HEK cells transfected with hRGMc) [1] [nM] | Kd (Rat RGMa-His (rat)) [nM] | Kd (R&D hRGMc-His) [nM] | Kd (hRGMa-His) [nM] | Kd (human RGMa) [nM] | koff (human RGMa) [s⁻¹] | kon (human RGMa) [M⁻¹ s⁻¹] | Kd (human RGMc) [nM] | koff (human RGMc) [s⁻¹] | kon (human RGMc) [M⁻¹ s⁻¹] | IC50, RGMc-mediated BMP reporter (BRE-luc) assay in 293HEK cells [2] [nM]
RGMA-h5F9Vh7a/pJP291 hIgG1/K mut (antibody, V domains shown, Tested as IgG; also called h5F9.AM4; H5F9AM.4) VH: EVQLVESGGGLVQPGGSLRLSCAASGFTFSNYGMNWIRQAPGKGLEWIGMIYYDSSEKHYADSVKGRFTISRDNSKNTLYLQMNSLRAEDTAVYYCAKGTTPDYWGQGTMVTVSS VL: DVVLTQSPLSLPVTLGQPASISCRSSQSLESSDGDTFLEWFQQRPGQSPRLLIYDVSTRFSGVPDRFSGSGSGTDFTLKISRVEAEDVGVYYCFQVTHDPVTFGQGTKLEIK | < 0.00094 | < 1e-06 | 1.1e+06 | 0.31 | < 0.00094 | 0.12 | 0.015 | 0.015 | 2.2e-05 | 1.4e+06 | 0.13 | 0.00104 | 7.85e+06 | –
RGMA-h5F9pJP302/pJP303 hIgG1/K mut (antibody, V domains shown, Tested as IgG; also called h5F9.AM11; H5F9AM.11) VH: EVQLVESGGGLVQPGGSLRLSCAASGFTFSNYGMNWVRQAPGKGLEWVSMIYYDSSEKHYADSVKGRFTISRDNSKNTLYLQMNSLRAEDTAVYYCAKGTTPDYWGQGTMVTVSS VL: DVVLTQSPLSLPVTLGQPASISCRSSQSLEDSDGGTFLEWFQQRPGQSPRLLIYDVSSRFSGVPDRFSGSGSGTDFTLKISRVEAEDVGVYYCFQATHDPLSFGQGTKLEIK | 0.074 | 5.2e-05 | 700000 | 0.51 | 0.074 | 0.25 | 0.11 | 0.11 | 9.9e-05 | 930000 | 0.285 | 0.0014 | 5.05e+06 | –
RGMA-h5F9pJP297/pJP298 hIgG1/K mut (antibody, V domains shown, Tested as IgG; also called h5F9.AM8; H5F9AM.8) VH: EVQLVESGGGLVQPGGSLRLSCAASGFTFSNYGMNWIRQAPGKGLEWIGMIYYDSSEKHYADSVKGRFTISRDNSKNTLYLQMNSLRAEDTAVYYCAKGTTPDYWGQGTMVTVSS VL: DVVLTQSPLSLPVTLGQPASISCRSSQSLEESDGYTFLHWFQQRPGQSPRLLIYEVSTRFSGVPDRFSGSGSGTDFTLKISRVEAEDVGVYYCFQATHDPLTFGQGTKLEIK | < 0.0015 | < 1e-06 | 660000 | 0.38 | < 0.0015 | 0.08 | 0.031 | 0.031 | 2.7e-05 | 870000 | 0.105 | 0.00039 | 3.95e+06 | –

Further binders by falling Kd (Rat RGMa (rat)), results first:

Kd (Rat RGMa (rat)) [nM] | koff (Rat RGMa (rat)) [s⁻¹] | kon (Rat RGMa (rat)) [M⁻¹ s⁻¹] | IC50 (inhibition of RGMc-mediated BRE-luciferase activity, RLU, in 293HEK cells transfected with hRGMc) [1] [nM] | Kd (Rat RGMa-His (rat)) [nM] | Kd (R&D hRGMc-His) [nM] | Kd (hRGMa-His) [nM] | Kd (human RGMa) [nM] | koff (human RGMa) [s⁻¹] | kon (human RGMa) [M⁻¹ s⁻¹] | Kd (human RGMc) [nM] | koff (human RGMc) [s⁻¹] | kon (human RGMc) [M⁻¹ s⁻¹] | IC50, RGMc-mediated BMP reporter (BRE-luc) assay in 293HEK cells [2] [nM] | Binder
2.1 | 0.0017 | 830000 | 17.1 | – | – | – | 3.7 | 0.0022 | 600000 | 29 | – | 830000 | 17 | humanized antibody 5F9.23 (antibody, V domains shown, also called h5F9.23; H5F9.23) VH: EVQLVESGGGLVQPGGSLRLSCAASGFTFSNYGMNWIRQAPGKGLEWIGMIYYDSSEKHYADSVKGRFTISRDNSKNTLYLQMNSLRAEDTAVYYCAKGTTPDYWGQGTMVTVSS VL: DVVLTQSPLSLPVTLGQPASISCRSSQSLEYSDGYTFLEWFQQRPGQSPRLLIYEVSNRFSGVPDRFSGSGSGTDFTLKISRVEAEDVGVYYCFQATHDPLTFGQGTKLEIKR
0.31 | 0.00021 | 680000 | 1.36 | 0.31 | 0.69 | 0.47 | 0.47 | 0.0004 | 860000 | 0.71 | 0.0107 | 1.55e+07 | – | RGMA-h5F9pJP297/pJP299 hIgG1/K mut (antibody, V domains shown, Tested as IgG; also called h5F9.AM9; H5F9AM.9) VH: EVQLVESGGGVVQPGRSLRLSCAASGFTFSNYGMNWVRQAPGKGLEWVAMIYYDSSEKHYADSVKGRFTISRDNSKNTLYLQMNSLRAEDTAVYYCARGTTPDYWGQGTMVTVSS VL: DVVLTQSPLSLPVTLGQPASISCRSSQSLADSDGDTFLHWFQQRPGQSPRLLIYAVSHRFSGVPDRFSGSGSGTDFTLKISRVEAEDVGVYYCFQATHDPVTFGQGTKLEIK
